Results as given in patent US20110129473A1 (LABORATORIOS SILANES S A DE C V, published 2011).

Target: T1, recombinant human cytokine TNFα (human, UniProt P01375 77-233)
T1 construct: Recombinant human TNFα used for immunisation, panning and ELISA; also called human TNFα; rhTNF-α
Test: phage display selection and ELISA on coated TNFα
Procedure: Phage selection rounds, amplification and recovery: There were performed 4 rounds of phage selection with TNFα 1 μg in PBS in an ELISA plate, sealed and incubating over night at 4° C., the cytokine is eliminated and blocking with 150 μl of PBS-BSA (3%), sealed and incubated 1 hr at 37° C.; discarding and adding 50 μl of phage-antibodies for each well, sealed and incubated with TBS-Tween 20 (0.05%) 150 for each well using the pipette to agitate. The solution is discarded and the phage-antibodies specific for TNFα are harvested after adding 50 μl per well of TBS-Trypsin [10 mg/ml]. The plate is sealed and incubated during 30 minutes, 37° C. The phage-antibodies are recovered and used to infect a culture of E. coli ER2537 (2 ml) electro-compentents (DO₆₀₀=1), during 15 minutes at room temperature. The selected phage-antibodies are amplified using serial dilutions incubating the transformants in SB media with carbencillin and helper phage VCSM13 with kanamycin. The phage-antibodies were recovered from the infected cultures of ER2537 cells by centrifugations using first PEG-8000 4% and NaCl 3, and PBS_BSA 1% (2 ml) filtering the supernatant with a 0.22 μm membrane, using 50 μl para to be selected according to the TNFα binding. […]

T1 sequence (P01375 77-233 limits assumed): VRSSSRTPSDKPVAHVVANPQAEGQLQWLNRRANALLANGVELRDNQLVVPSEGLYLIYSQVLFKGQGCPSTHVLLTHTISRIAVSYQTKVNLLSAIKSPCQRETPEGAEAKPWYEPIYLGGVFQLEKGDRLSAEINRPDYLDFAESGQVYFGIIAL

binding result: binds
B1: vNAR clone 65 (anti-TNFα vNAR from Heterodontus francisci) (other)
chain: ASLDQTPRTATRETGESLTVNCVLVDANYGLYNTSWYRNNPGSTDREHITIGGRYVESVNKGAKSFSLQIKDMTVEDSGTYYCKARESDYNRVGIRDYKDYDGAGTVLTVN
notes: Shark IgNAR single variable domain (vNAR), expressed from pCOMb3X in E. coli; also called TNF65
